Substitutions are numbered along the chain they refer to. Names and notes keep the numbering of the source.
B1: D32A: E. coli LigA with Asp32 replaced by alanine (protein, UniProt P15042 1-671, looked up, variant D32A)
DNA ligase: MESIEQQLTELRTTLRHHEYLYHVMDAPEIPAAEYDRLMRELRELETKHPELITPDSPTQRVGAAPLAAFSQIRHEVPMLSLDNVFDEESFLAFNKRVQDRLKNNEKVTWCCELKLDGLAVSILYENGVLVSAATRGDGTTGEDITSNVRTIRAIPLKLHGENIPARLEVRGEVFLPQAGFEKINEDARRTGGKVFANPRNAAAGSLRQLDPRITAKRPLTFFCYGVGVLEGGELPDTHLGRLLQFKKWGLPVSDRVTLCESAEEVLAFYHKVEEDRPTLGFDIDGVVIKVNSLAQQEQLGFVARAPRWAVAFKFPAQEQMTFVRDVEFQVGRTGAITPVARLEPVHVAGVLVSNATLHNADEIERLGLRIGDKVVIRRAGDVIPQVVNVVLSERPEDTREVVFPTHCPVCGSDVERVEGEAVARCTGGLICGAQRKESLKHFVSRRAMDVDGMGDKIIDQLVEKEYVHTPADLFKLTAGKLTGLERMGPKSAQNVVNALEKAKETTFARFLYALGIREVGEATAAGLAAYFGTLEALEAASIEELQKVPDVGIVVASHVHNFFAEESNRNVISELLAEGVHWPAPIVINAEEIDSPFAGKTVVLTGSLSQMSRDDAKARLVELGAKVAGSVSKKTDLVIAGEAAGSKLAKAQELGIEVIDEAEMLRLLGS
B2: Y22A: E. coli LigA with Tyr22 replaced by alanine (protein, UniProt P15042 1-671, looked up, variant Y22A)
DNA ligase: B1 DNA ligase with Y22A, A32D
B3: Y22F: E. coli LigA with Tyr22 replaced by Phe (protein, UniProt P15042 1-671, looked up, variant Y22F)
DNA ligase: B1 DNA ligase with Y22F, A32D
B4: H23A: E. coli LigA with His23 replaced by alanine (protein, UniProt P15042 1-671, looked up, variant H23A)
DNA ligase: B1 DNA ligase with H23A, A32D
B5: Y22S: E. coli LigA with Tyr22 replaced by Ser (protein, UniProt P15042 1-671, looked up, variant Y22S)
DNA ligase: B1 DNA ligase with Y22S, A32D
B6: H23Y: E. coli LigA with His23 changed to Tyr (protein, UniProt P15042 1-671, looked up, variant H23Y)
DNA ligase: B1 DNA ligase with H23Y, A32D
B7: Y35S: E. coli LigA with Tyr35 replaced by Ser (protein, UniProt P15042 1-671, looked up, variant Y35S)
DNA ligase: B1 DNA ligase with A32D, Y35S
B8: Y35A: E. coli LigA with Tyr35 replaced by alanine (protein, UniProt P15042 1-671, looked up, variant Y35A)
DNA ligase: B1 DNA ligase with A32D, Y35A
B9: D36N: E. coli LigA with Asp36 mutated to Asn (protein, UniProt P15042 1-671, looked up, variant D36N)
DNA ligase: B1 DNA ligase with A32D, D36N
B10: D32N: E. coli LigA with Asp32 mutated to Asn (protein, UniProt P15042 1-671, looked up, variant D32N)
DNA ligase: B1 DNA ligase with A32N
B11: D32E: E. coli LigA with Asp32 mutated to Glu (protein, UniProt P15042 1-671, looked up, variant D32E)
DNA ligase: B1 DNA ligase with A32E
B12: E10A: E. coli LigA with Glu10 replaced by alanine in domain Ia (protein, UniProt P15042 1-671, looked up, variant E10A)
DNA ligase: B1 DNA ligase with E10A, A32D
B13: Y35F: E. coli LigA with Tyr35 replaced by Phe (protein, UniProt P15042 1-671, looked up, variant Y35F)
DNA ligase: B1 DNA ligase with A32D, Y35F
B14: D36E: E. coli LigA with Asp36 mutated to Glu (protein, UniProt P15042 1-671, looked up, variant D36E)
DNA ligase: B1 DNA ligase with A32D, D36E

System: E. coli LigA
Format: biochemical
Conditions: not given
Method: (§1) FIG. 12A: Aliquots (5 μg) of wild-type (WT) E. coli ligase, N-terminal deletion mutants NΔ38 and NΔ78, and the full-length ligase proteins containing the indicated alanine mutations in domain Ia were analyzed by SDS-PAGE. A Coomassie blue-stained gel is shown. FIG. 12B: Ligase adenylation reaction mixtures (20 μl) containing 50 mM Tris-HCl (pH 7.5), 5 mM DTT, 5 mM MgCl2, 1 μM [α-^32P]NAD^+ and 8 pmol of WT ligase, NΔ38, NΔ78, or the indicated alanine mutants were incubated for 5 min at 37° C. The reaction products were resolved by SDS-PAGE and visualized by autoradiography. FIG. 12C: Nick joining reaction mixtures (20 μl) containing 50 mM Tris-HCl (pH 7.5), 10 mM (NH4)2SO4, 5 mM DTT, 5 mM MgCl2, 20 μM NAD^+, 1 pmol of ^32P-labeled nicked DNA, and increasing amounts of WT ligase or the indicated alanine mutants were incubated for 10 min at 22° C. The extents of ligation are plotted as a function of input protein.
To further probe the role of domain Ia in NAD^+ recognition and nucleotidyl transfer, single alanine substitutions were introduced at six positions in the Ia domain of E. coli LigA. The six mutated Eco ligase residues—Glu10, Tyr22, His23, Asp32, Tyr35, and Asp36—correspond to the six residues that were subjected to alanine scanning mutagenesis in AmEPV ligase (FIG. 11). […] The conserved positions are denoted by shaded boxes in FIG. 11. The Eco ligase mutants E10A, Y22A, H23A, D32A, Y35A, and D36A were produced in E. coli and purified by Ni-agarose chromatography in parallel with wild-type ligase (FIG. 12A).
To evaluate the roles of charge, hydrogen bonding potential, and steric constraints in the functions of the domain Ia residues implicated in the step 1 reaction with NAD^+, the effects of conservative substitutions were tested. Tyr22 and Tyr35 were replaced by Phe and Ser, His23 was changed to Tyr, and Asp32 and Asp36 were mutated to Glu and Asn. The recombinant mutant ligases were purified from soluble bacterial extracts by Ni-agarose chromatography (FIG. 15A). The specific activity of each mutant was determined under steady-state conditions by protein titration and normalized to the specific activity of wild-type ligase.

Row | Molecule | nick ligation (qualitative)
1 | B1 | virtually inert
2 | B2 | virtually inert

Same assay, conditions: specific activity by protein titration under steady-state conditions, normalized to wild-type ligase

Row | Molecule | Nick Joining Activity (% of WT)
3 | B3 | 9 % of WT
4 | B1 | 0.2 % of WT
5 | B4 | 10 % of WT
6 | B2 | 0.1 % of WT
7 | B5 | 0.2 % of WT
8 | B6 | 88 % of WT
9 | B7 | <0.1 % of WT
10 | B8 | 2 % of WT
11 | B9 | 12 % of WT
12 | B10 | 9 % of WT
13 | B11 | 0.4 % of WT
14 | B12 | 90 % of WT
15 | B13 | 23 % of WT
16 | B14 | 4 % of WT

System: E. coli LigA
Format: biochemical
Conditions: 1 μM [32P-AMP]NAD+, 15-120 s
Method: as §1
FIG. 15A: Aliquots (5 μg) of wild-type (WT) E. coli ligase and proteins containing the indicated mutations in domain Ia were analyzed by SDS-PAGE. The Coomassie blue-stained gel is shown. The positions and sizes (in kDa) of marker proteins are indicated on the left. FIG. 15B: Ligase adenylation reaction mixtures (20 μl) containing 50 mM Tris-HCl (pH 7.5), 5 mM DTT, 5 mM MgCl2, 1 μM [α-^32P]NAD^+ and 8 pmol of WT ligase or the indicated mutants were incubated for 5 min at 37° C. The reaction products were resolved by SDS-PAGE and visualized by autoradiography.
Reaction mixtures containing (per 20 μl) 50 mM Tris-HCl (pH 7.5), 5 mM DTT, 5 mM MgCl2, 1 μM [^32P-AMP]NAD^+ and 8 pmol of ligase were incubated at 22° C. Aliquots (20 μl) were withdrawn at 15, 30, 60 and 120 s and then quenched immediately with SDS. The products were analyzed by SDS-PAGE. Formation of the ligase-[^32P]AMP adduct is plotted as a function of time.
The first step in DNA ligation involves formation of a covalent enzyme-adenylate intermediate.

Row | Molecule | rate of ligase adenylation (kinetic pattern)
17 | B3 | reacted slowly
18 | B4 | reacted slowly
19 | B9 | faster than D36E
20 | B10 | faster than D32E
21 | B13 | faster than Y35A

Same assay, conditions: qualitative

Row | Molecule | ligase adenylation (ligase-AMP formation) with NAD+
22 | B3 | weakly active
23 | B1 | virtually inert
24 | B4 | less active
25 | B2 | virtually inert
26 | B5 | virtually inert
27 | B6 | restored the yield of ligase-AMP adduct to the wild-type level
28 | B7 | apparently unreactive
29 | B8 | less active
30 | B9 | partially active
31 | B10 | partially active
32 | B11 | more severely affected
33 | B12 | did not affect
34 | B13 | restored adenylation activity
35 | B14 | more severely affected

System: E. coli LigA
Format: biochemical
Conditions: not given
Remark: another data set of the same source
Method: Reaction mixtures containing 1 pmol of ^32P-labeled nicked DNA-adenylate (AppDNA) and either 8 pmol of wild-type (WT) E. coli ligase, deletion mutants NΔ38 and NΔ78, or the full-length ligase proteins containing the indicated alanine mutations in domain Ia were incubated for 60 min at 22° C. The reaction products were resolved by denaturing PAGE. An autoradiograph of the gel is shown. Control reaction mixtures containing either ^32P-labeled nicked DNA-adenylate (AppDNA) or nicked DNA (pDNA) substrates and no ligase are shown in lanes -. The positions of the pDNA, AppDNA, and ligated 36-mer DNA strands are indicated by arrows on the right. The position of the radiolabeled phosphate of AppDNA is denoted by •. The nicked DNA-adenylate substrate used in the ligation reactions is illustrated at the bottom.
The nicked DNA-adenylate substrate is illustrated in FIG. 13. The DNA-adenylate ligation reaction mixtures (20 μl) contained 50 mM Tris-HCl (pH 7.5), 5 mM DTT, 5 mM MgCl2, 200 fmol of nicked DNA-adenylate substrate, 2 pmol of wild-type or mutant EcoLigA proteins as specified were incubated at 22° C. The sealing reactions were initiated by adding ligase. Aliquots (20 μl) were withdrawn at the times specified and quenched immediately with EDTA and formamide. The products were resolved by denaturing PAGE and the extents of ligation were determined by scanning the gel with a phosphorimager. The extent of strand joining is plotted as a function of reaction time.
The third step of the ligation pathway entails attack of the 3′ OH of the nick on the 5′ PO4 of the DNA-adenylate to form a phosphodiester and release AMP. Step 3 of the ligation reaction was assayed using a pre-adenylated nicked DNA substrate labeled with ^32P on the 5′ PO4 of the DNA-adenylate strand (FIG. 13).

Row | Molecule | effect on rate or extent (yield) of phosphodiester formation at a pre-adenylated nick
36 | B2 | no effect

Same assay, conditions: qualitative, magnesium, no added NAD+

Row | Molecule | phosphodiester formation at pre-adenylated nick
37 | B1 | catalytically active
38 | B4 | catalytically active
39 | B2 | catalytically active
40 | B8 | catalytically active
41 | B12 | catalytically active

From patent US6787341B2, “Pharmacological targeting of bacterial DNA ligase for treatment and prevention of bacterial infections” (priority 2001, dated 2004)
